Experimental data reported in patent US20160090427A1 (SAMSUNG ELECTRONICS, published 2016).

Legend:
[1] = molecular target: T1, human c-Met/Fc fusion protein (R&D Systems) (human, UniProt P08581 25-932); assay: ELISA, human c-Met/Fc fusion protein coated on plate, hybridoma culture, anti-mouse IgG-HRP
T1 construct: Bought reagent; also called c-Met-Fc (#358-MT/CF, R&D Systems); human c-Met/Fc protein; not shown: Fc part of the bought fusion protein
Description: Human c-Met/Fc fusion protein was seeded in an amount of 50 μL (2 μg/mL)/well to microtiter plates and allowed to adhere to the surface of each well. The antibody that remained unbound was removed by washing.
The hybridoma cell culture obtained in Reference Example 1.1.2 was added in an amount of 50 μL to each well of the plates and incubated for 1 hour. The cells remaining unreacted were washed out with a sufficient amount of Tris-buffered saline and Tween 20 (TBST). Goat anti-mouse IgG-horseradish peroxidase (HRP) was added to the plates and incubated for 1 hour at room temperature. The plates were washed with a sufficient amount of TBST, followed by reacting the peroxidase with a substrate (OPD). Absorbance at 450 nm was measured on an ELISA reader.

VEGF (R&D systems) = VEGF (R&D systems) (UniProt P15692-4 27-191, limits assumed); assay: SPR (Biacore T100), CM5 chip, VEGF; format unclear in the text
Description: An examination on whether the 8 anti-c-Met/anti-VEGF bispecific antibodies prepared in Example 2 maintains binding affinity to VEGF was conducted using Biacore T100(GE). VEGF (R&D systems) immobilized on the surface of CM5 chip (#BR-1005-30, GE) by amino coupling according to the manufacturer's instructions. About 90˜120 RU of the anti-c-Met/anti-VEGF bispecific antibody was captured, and […] was injected thereto at various concentrations. Then, a solution containing 1M NaCl and 5 mM NaOH was injected thereto to regenerate the surface. The obtained data were fitted using BlAevaluation software (GE Healthcare, Biacore T100 evaluation software), to measure the binding affinity to VEGF.

[2] = molecular target: T1, human c-Met/Fc fusion protein (R&D …); assay: SPR (Biacore T100), bispecific captured by human Fab binder on CM5 chip, c-Met-Fc injected
Description: An examination on whether the anti-c-Met/anti-VEGF bispecific antibody maintains binding affinity to c-Met was conducted using Biacore T100(GE). A human Fab binding agent (GE Healthcare) was immobilized onto a CM5 chip (#BR-1005-30, GE) according to the manufacturer's instructions. About 90˜120 RU of the anti-c-Met/anti-VEGF bispecific antibody was captured, and c-Met-Fc (#358-MT/CF, R&D Systems) was injected thereto at various concentrations. Then, 10 mM Glycine-HCl (pH 2.1) solution was injected thereto to regenerate the surface. The obtained data were fitted using BlAevaluation software (GE Healthcare, Biacore T100 evaluation software), to measure the binding affinity to c-Met.

T1 sequence (P08581 25-932 limits assumed): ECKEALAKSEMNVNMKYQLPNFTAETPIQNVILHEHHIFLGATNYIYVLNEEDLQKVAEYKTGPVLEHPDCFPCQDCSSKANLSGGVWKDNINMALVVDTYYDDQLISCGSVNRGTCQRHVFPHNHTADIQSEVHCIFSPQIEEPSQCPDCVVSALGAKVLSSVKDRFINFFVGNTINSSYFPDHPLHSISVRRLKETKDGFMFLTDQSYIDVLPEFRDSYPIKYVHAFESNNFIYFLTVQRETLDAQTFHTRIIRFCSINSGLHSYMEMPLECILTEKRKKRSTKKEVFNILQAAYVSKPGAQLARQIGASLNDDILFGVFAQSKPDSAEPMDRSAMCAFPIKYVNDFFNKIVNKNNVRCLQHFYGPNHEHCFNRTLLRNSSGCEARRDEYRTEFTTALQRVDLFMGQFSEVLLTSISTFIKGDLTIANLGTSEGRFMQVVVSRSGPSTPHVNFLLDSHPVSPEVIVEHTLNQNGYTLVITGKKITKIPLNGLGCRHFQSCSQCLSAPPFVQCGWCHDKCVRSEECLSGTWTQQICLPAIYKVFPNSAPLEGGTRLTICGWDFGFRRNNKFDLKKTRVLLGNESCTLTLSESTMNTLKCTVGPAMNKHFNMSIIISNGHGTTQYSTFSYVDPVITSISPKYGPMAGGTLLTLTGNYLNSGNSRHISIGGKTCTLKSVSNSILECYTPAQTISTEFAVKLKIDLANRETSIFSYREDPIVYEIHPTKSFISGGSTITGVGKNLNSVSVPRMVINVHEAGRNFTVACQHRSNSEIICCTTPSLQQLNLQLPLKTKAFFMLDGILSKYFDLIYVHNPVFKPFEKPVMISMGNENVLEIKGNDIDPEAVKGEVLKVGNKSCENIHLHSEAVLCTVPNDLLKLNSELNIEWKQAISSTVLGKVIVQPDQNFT
Sequence of VEGF (R&D systems) (P15692 other isoform, or with tags, fused parts or gaps limits assumed): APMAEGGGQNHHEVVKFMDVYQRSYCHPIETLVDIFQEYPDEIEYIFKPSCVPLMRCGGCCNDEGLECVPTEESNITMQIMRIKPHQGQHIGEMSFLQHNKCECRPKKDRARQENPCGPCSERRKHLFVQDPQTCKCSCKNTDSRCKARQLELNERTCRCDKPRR

Row | Binder | binding result [1] | Kd (VEGF (R&D systems)) | Kd [2]
1 | AbF46, mouse monoclonal antibody to c-Met (antibody, V domains shown, Tested as hybridoma culture supernatant in the selection ELISA; also called antibody of hybridoma KCLRF-BP-00220) VH: EVKLVESGGGLVQPGGSLRLSCATSGFTFTDYYMSWVRQPPGKALEWLGFIRNKANGYTTEYSASVKGRFTISRDNSQSILYLQMDTLRAEDSATYYCARDNWFAYWGQGTLVTVSA VL: DILMTQSPSSLTVSAGEKVTMSCKSSQSLLASGNQNNYLAWHQQKPGRSPKMLIIWASTRVSGVPDRFIGSGSGTDFTLTINSVQAEDLAVYYCQQSYSAPLTFGAGTKLELK | binds | – | –
2 | MV-22 anti-c-Met/anti-VEGF bispecific antibody (bispecific antibody, human IgG2, kappa) heavy: EVQLVESGGGLVQPGGSLRLSCAASGFTFTDYYMSWVRQAPGKGLEWLGFIRNKANGYTTEYSASVKGRFTISRDNSKNTLYLQMNSLRAEDTAVYYCARDNWFAYWGQGTLVTVSSASTKGPSVFPLAPCSRSTSESTAALGCLVKDYFPEPVTVSWNSGALTSGVHTFPAVLQSSGLYSLSSVVTVPSSNFGTQTYTCNVDHKPSNTKVDKTVERKCCVECPPCPAPPVAGPSVFLFPPKPKDTLMISRTPEVTCVVVDVSHEDPEVQFNWYVDGVEVHNAKTKPREEQFNSTFRVVSVLTVVHQDWLNGKEYKCKVSNKGLPAPIEKTISKTKGQPREPQVYTLPPSREEMTKNQVSLTCLVKGFYPSDIAVEWESNGQPENNYKTTPPMLDSDGSFFLYSKLTVDKSRWQQGNVFSCSVMHEALHNHYTQKSLSLSPGKGGGGSGGGGSEVQLLESGGGLVQTGGSLRLSCAASGFTFSDYAMSWVRQAPGKGLEWVSWIYPGDSSIYYADSVKGRFTISRDNSKNTLYLQMNSLRAEDTAVYYCARLLSIDQAQLHYYYDAMDVWGQGTLVTVSSGGGGSGGGGSGGGGSQSVLTQPPSPSGTPGQRVTISCTGSSSNIGNYYVYWYQQLPGTAPKLLIYANSHRPSGVPDRFSGSKSGTSASLAISGLRSEDEADYYCGSWDDSLSAYVFGGGTKLTVLG light: DIQMTQSPSSLSASVGDRVTITCKSSQSLLASGNQNNYLAWYQQKPGKAPKMLIIWASTRVSGVPSRFSGSGSGTDFTLTISSLQPEDFATYYCQQSYSRPYTFGQGTKVEIKRTVAAPSVFIFPPSDEQLKSGTASVVCLLNNFYPREAKVQWKVDNALQSGNSQESVTEQDSKDSTYSLSSTLTLSKADYEKHKVYACEVTHQGLSSPVTKSFNRGEC | – | 2.2 nM | 0.06 nM
